By pEC50 is commonly meant −log10 of the EC50, conventionally taken in molar units. In general, pIC50 refers to the negative decadic logarithm of the IC50, by convention in mol/L. Lower therefore signals a large IC50.

pEC50, pIC50: −log10 of the molar value.

The results in this text go back to US20230218753A1.

Assay [1] addresses activated human complement C1s (UniProt P09871). The assay is described as follows: direct binding.
For assay [2] the target is unchanged. The assay is described as follows: competition binding with 50 pM biotinylated TNT005.

activated human complement C1s, sequence (P09871 16-688): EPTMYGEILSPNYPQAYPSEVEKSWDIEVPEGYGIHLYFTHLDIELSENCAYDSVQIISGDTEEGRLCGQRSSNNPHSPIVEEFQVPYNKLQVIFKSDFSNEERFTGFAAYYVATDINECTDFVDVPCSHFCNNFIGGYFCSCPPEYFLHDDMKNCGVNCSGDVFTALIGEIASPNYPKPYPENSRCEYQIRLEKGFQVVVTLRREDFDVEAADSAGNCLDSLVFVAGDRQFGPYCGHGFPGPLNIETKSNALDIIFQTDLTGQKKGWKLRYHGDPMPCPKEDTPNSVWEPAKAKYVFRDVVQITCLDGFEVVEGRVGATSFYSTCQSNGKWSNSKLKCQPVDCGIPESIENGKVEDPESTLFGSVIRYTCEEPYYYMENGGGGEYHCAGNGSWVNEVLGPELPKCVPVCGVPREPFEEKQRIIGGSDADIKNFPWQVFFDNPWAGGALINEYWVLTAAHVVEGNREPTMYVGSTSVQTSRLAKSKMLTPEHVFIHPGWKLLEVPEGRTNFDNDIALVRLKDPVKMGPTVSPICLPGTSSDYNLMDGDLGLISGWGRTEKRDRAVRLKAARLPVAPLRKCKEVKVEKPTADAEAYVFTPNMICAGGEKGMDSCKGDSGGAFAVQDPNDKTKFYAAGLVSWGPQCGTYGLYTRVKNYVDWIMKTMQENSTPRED

In assay [1], TNT005 had a pEC50 of 10.25. The substance further gave a pIC50 in assay [2] of 10.40.
